From doi:10.1101/2021.12.31.474340

Target: guanylyl cyclase-A (GC-A), human, stably expressed in QBIHEK293A cells (human) (UniProt P16066)
Assay: radioligand binding

Chain of UniProt P16066 (P16066 33-473): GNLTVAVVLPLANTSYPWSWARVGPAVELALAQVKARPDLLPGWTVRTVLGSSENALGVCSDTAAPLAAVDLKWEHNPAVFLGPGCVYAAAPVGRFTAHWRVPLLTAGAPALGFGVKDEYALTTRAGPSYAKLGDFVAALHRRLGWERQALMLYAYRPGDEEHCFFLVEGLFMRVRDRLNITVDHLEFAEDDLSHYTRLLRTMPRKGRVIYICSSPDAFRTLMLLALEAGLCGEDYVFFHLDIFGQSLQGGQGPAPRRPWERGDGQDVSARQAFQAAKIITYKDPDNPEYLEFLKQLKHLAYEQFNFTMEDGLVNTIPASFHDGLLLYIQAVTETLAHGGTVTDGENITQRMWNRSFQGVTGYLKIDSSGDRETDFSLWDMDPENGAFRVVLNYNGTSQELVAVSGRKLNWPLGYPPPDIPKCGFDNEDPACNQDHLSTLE

^125I-ANP (peptide)
increase of binding with increasing concentrations of compound #20: 71%
increase of overall binding with 10 uM compound #20 against control: 60%
